Reference: US10919943B2, “Mutant proteins enabling agrochemical control of plant gene expression” (The Regents of the University of California, priority 2016, dated 2021)

Tests used:
[1] = tested on: Arabidopsis; assay: Overexpression of HAB1^!-2 (35S::GFP-HAB1^!-2) in Arabidopsis, T1 plant phenotype; type: in vivo
From the text: To investigate the effects of overexpressing HAB1^!-2 in Arabidopsis, we used Agrobacterium mediated transformation to generate 35S::GFP-HAB1^!-2 transgenic plants. HAB1^!-2 was cloned from pACT-HAB1^!-2 into pEGAD, a binary vector suitable for plant transformation, generating a 35S-driven GFP-HAB1^!-2 fusion protein. The clone was transformed into Agrobacterium and the floral dip method used to transform Arabidopsis. After selection of T0 seed on soil containing glufosinate, several T1 seedlings were identified. […] As an alternate strategy, we eliminated HAB1's catalytic activity by introducing a mutation in a conserved metal-ion binding residue (D204), which is homologous to D131A mutation in ABI1, previously shown to eliminate phosphatase activity without disrupting wild type receptor-ABI1 interactions (Liang et al., 2011). We used QuickChange mutagenesis to introduce the D204A mutation into pACT-HAB1^!-2, generating pACT-HAB1^!-3. When tested for mandipropamid induced interactions with pBD-PYR1*^-MANDI, HAB1^!-3 is ˜10-fold less sensitive to mandipropamid relative to HAB1^!-2 (FIG. 5).

[2] = tested on: HAB1; assay: Yeast two hybrid of pBD-PYR1 site saturation mutants with pACT-HAB1 on 10 μM ABA, β-galactosidase staining; type: cell-based, Arabidopsis; design: key: x: Mutations in PYR1 that disrupt ABA-induced binding to PYR1 to HAB1; conditions: S. cerevisiae Y190, 10 μM ABA; dead = lack of visible staining in comparison to wild type control
How it was run: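 Binding was read by β-galactosidase staining of chloroform-lysed colonies after 2 days at 30° C on SD (-Leu, -Trp) plates containing 10 μM (+)-ABA. Yeast strain Y190 carried the BD-PYR1 single-substitution mutants plus the AD-HAB1 fusion. Absence of staining versus the wild-type control defined "dead" mutants.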

[3] = target: T1, HAB1^! (Arabidopsis thaliana); assay: In vitro PP2C assay, ABA-promoted inhibition of GST-HAB1^! by receptor; type: biochemical; conditions: in response to ABA; 100 nM receptor, 50 nM PP2C; FIG. 2
T1 construct: 6xHis (N); made in house; host or cells: E. coli BL21 [DE3]pLysS
From the text: (§1) In the presence of ABA, wild type PYR1 binds to HAB1 and docks into its active site, which inhibits its enzymatic activity by blocking access of substrates. To characterize the orthogonal PYR1^! and HAB1^! interaction biochemically, we produced recombinant forms of each protein in E. coli, along with the wild type form, and tested the wild type and orthogonal mutant for their ability to inhibit HAB1 and HAB1^! activities in vitro. We cloned PYR1^! into pET28 to generate 6×-His tagged receptor and cloned HAB1^! into pGEX-4T-1 to create a GST-fusion protein. The previously constructed (S.-Y. Park et al., 2009) wild type 6×-His-PYR1 and GST-HAB1 constructs were used for producing recombinant wild type proteins. The 6×-His-tagged receptors and GST-tagged PP2Cs were expressed and purified as previously described. Briefly, the proteins were expressed in BL21 [DE3]pLysS E. coli host cells at 18° C. overnight. […] The plates were read using a Victor 2 plate reader (PerkinElmer) (355 nm excitation, 460 nm emission) and assays run in triplicate. The PP2C activity values reported are expressed as percent control values, which were calculated by including the carrier solvent (1% DMSO) and the specific receptor assayed, but no ligand. […]

[4] = tested on: HAB1; assay: In vitro PP2C assay, ligand-promoted inhibition of GST-HAB1 by receptor; type: biochemical, Arabidopsis; conditions: ABA-promoted; FIG. 2
From the text: as §1, with “overnight. Fusion proteins were purified from sonicated lysates using Ni-NTA agarose (Qiagen, USA) or Pierce™ Glutathione Agarose (Thermo Scientific) according to the manufacturer's instructions. PP2C assays were conducted in 96-well polystyrene flat-bottom microtitre plates (Greiner).” for “overnight.”
According to our current understanding, in order for ABA signaling to be initiated in vivo, PP2C activity must be inhibited to enable accumulation of active SnRK2 kinases. […] 4-methylumbeliferyl phosphate was added (1 mM final concentration) was added to the reactions after 30 minutes equilibration and plates were read by fluorimetry. The PP2C activity values reported are expressed as percent control values, which was calculated by including the carrier solvent (1% DMSO) and the specific receptor assayed, but no ligand.

[5] = target: T2, HAB1^! (Arabidopsis thaliana, UniProt O49686+Q9CAJ0, F108A/F159L/K59R/S122G/T162D/V393R/V81I/Y58H); assay: Yeast two hybrid, mandipropamid-promoted interaction of PYR1 variants with HAB1^!; type: cell-based; conditions: FIG. 3
T2 construct: expressed in transfected cells
From the text: (§2) To engineer orthogonal mandipropamid responsiveness, we introduced the PYR1^! mutation into the PYR1^MANDI receptor to create a septuple mutant called PYR1^!-MANDI (PYR1^Y58H;K59R;V81I;F108A;S122G;F159L;T162D). This mutant interacts with HAB1^! and HAB^!-2 in response to low μM mandipropamid in yeast two-hybrid assays, but is ˜100-fold less sensitive than the PYR1^MANDI/HAB1 interaction, which responds to concentrations in the low nM range (FIG. 3).

[6] = tested on: HAB1^!-2; assay: Yeast two hybrid, mandipropamid-promoted interaction of PYR1 variants with HAB1^!-2; type: cell-based; conditions: FIG. 3, FIG. 4
From the text: as §2
To improve sensitivity, we mutagenized ligand contacting and interface residues in PYR1^!-MANDI using NNK primers, pooled the mutant libraries, and used the mutagenized receptors in selection experiments using to identify enhancer mutations. The NNK mutagenesis screen targeted the following residues: P55, H60, F61, I62, K63, V83, S85, G86, L87, P88, A89, S92, E94, I110, H115, R116, L117, Y120, E141, P148, G150, N151, D154, D155, T156, M158, A160, V163, V164, L166, N167, and K170. […] Since M158 and A160 flank the […] mutation present in PYR1^MANDI, we inferred that the closely located orthogonalizing T162D mutation in PYR1^!-MANDI may have reduced mandipropamid sensitivity by altering the local structure of the C-terminal α3-helix, which participates in ligand-induced conformational changes needed for PP2C binding (Nishimura et al., 2009). We therefore simultaneously mutagenized positions M158, F159 and A160 using a primer with degenerate NNK codons at all three positions. F159 was included in this mutagenesis because we have previously observed that multiple substitutions at F159 (A,C,I,L,M,T, or V) are permissive for mandipropamid responsiveness (S. Y. Park et al., n.d.), and sought to test whether residues other than leucine at position 159 might function better in the context of simultaneous changes to both A160 and M158. The mutagenic primer was used in QuickChange mutagenesis reactions using pBD-PYR1^!-MANDI template, and a library of ˜12,000 clones was generated. Plasmid DNA for the library was prepared from pooled E. coli transformants, and subsequently transformed into S. cerevisiae strain MAV99 harboring pACT-HAB1^!-2. ˜20,000 yeast transformants were generated, pooled, and plated onto SD(-Leu,-Trp) agar media supplemented with 0.1% fluorotic acid (to select against mutants that interact in a ligand-independent fashion). The surviving cells were collected and plated onto SD(Leu,-Trp,-Ura) plates supplemented with 50 nM mandipropamid. The colonies displaying the best uracil-independent growth were isolated and retested on different mandipropamid concentrations and then stained in β-galactosidase assays to rank their relative strength.

T2 sequence (Q9CAJ0 4-511 V393R, one chain of several): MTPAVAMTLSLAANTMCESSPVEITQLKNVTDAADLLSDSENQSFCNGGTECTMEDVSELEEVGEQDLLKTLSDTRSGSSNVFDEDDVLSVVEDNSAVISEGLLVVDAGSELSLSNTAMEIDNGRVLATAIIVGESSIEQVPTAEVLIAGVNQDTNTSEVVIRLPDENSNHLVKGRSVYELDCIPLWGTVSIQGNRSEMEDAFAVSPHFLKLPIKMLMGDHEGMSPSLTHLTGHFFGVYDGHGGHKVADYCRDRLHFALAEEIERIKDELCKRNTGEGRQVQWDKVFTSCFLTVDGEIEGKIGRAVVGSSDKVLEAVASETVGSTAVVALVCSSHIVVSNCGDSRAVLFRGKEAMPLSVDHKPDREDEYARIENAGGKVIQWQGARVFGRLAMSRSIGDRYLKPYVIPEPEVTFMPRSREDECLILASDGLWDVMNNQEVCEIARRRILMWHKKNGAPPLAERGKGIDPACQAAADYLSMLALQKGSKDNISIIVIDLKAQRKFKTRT

B1: HAB1^!-2: HAB1 double mutant V393R, R505A (protein)
chain: MTPAVAMTLSLAANTMCESSPVEITQLKNVTDAADLLSDSENQSFCNGGTECTMEDVSELEEVGEQDLLKTLSDTRSGSSNVFDEDDVLSVVEDNSAVISEGLLVVDAGSELSLSNTAMEIDNGRVLATAIIVGESSIEQVPTAEVLIAGVNQDTNTSEVVIRLPDENSNHLVKGRSVYELDCIPLWGTVSIQGNRSEMEDAFAVSPHFLKLPIKMLMGDHEGMSPSLTHLTGHFFGVYDGHGGHKVADYCRDRLHFALAEEIERIKDELCKRNTGEGRQVQWDKVFTSCFLTVDGEIEGKIGRAVVGSSDKVLEAVASETVGSTAVVALVCSSHIVVSNCGDSRAVLFRGKEAMPLSVDHKPDREDEYARIENAGGKVIQWQGARVFGRLAMSRSIGDRYLKPYVIPEPEVTFMPRSREDECLILASDGLWDVMNNQEVCEIARRRILMWHKKNGAPPLAERGKGIDPACQAAADYLSMLALQKGSKDNISIIVIDLKAQAKFKTRT
modifications: left off: small tags and cut ends
notes: HAB1 double mutant V393R, R505A
phenotype of T1 plants [1]: symptoms of severe ABA insensitivity, including dwarf stature and high sensitivity to water deficit

B2: T162D: PYR1 mutant T162D, denoted PYR1^! (protein, UniProt O49686 1-191, looked up, variant T162D)
Abscisic acid receptor PYR1: MPSELTPEERSELKNSIAEFHTYQLDPGSCSSLHAQRIHAPPELVWSIVRRFDKPQTYKHFIKSCSVEQNFEMRVGCTRDVIVISGLPANTSTERLDILDDERRVTGFSIIGGEHRLTNYKSVTTVHRFEKENRIWTVVLESYVVDMPEGNSEDDTRMFADDVVKLNLQKLATVAEAMARNSGDGSGSQVT
Mutations in PYR1 that disrupt ABA-induced binding to PYR1 to HAB1 [2]: x | inhibition of HAB1^! phosphatase activity [3]: does not strongly inhibit | inhibition of HAB1 phosphatase activity [4]: unable to inhibit

B3: PYR1^!-MANDI: septuple PYR1 mutant (protein, UniProt O49686 1-191, looked up, variant Y58H K59R V81I F108A S122G F159L T162D)
Abscisic acid receptor PYR1: MPSELTPEERSELKNSIAEFHTYQLDPGSCSSLHAQRIHAPPELVWSIVRRFDKPQTHRHFIKSCSVEQNFEMRVGCTRDIIVISGLPANTSTERLDILDDERRVTGASIIGGEHRLTNYKGVTTVHRFEKENRIWTVVLESYVVDMPEGNSEDDTRMLADDVVKLNLQKLATVAEAMARNSGDGSGSQVT
mandipropamid concentration to which the interaction responds [5]: low μM | mandipropamid concentration to which the interaction responds [6]: low μM
